The text below walks through data of patent publication US20210261671A1 (HARPOON THERAPEUTICS, published 2021).

Experiment [1] addresses T1, human FLT3 protein (human, UniProt P36888 27-541, limits assumed).
T1 construct: protein coated in the screening ELISA; also called ELISA FLT3
Nature of the experiment: colorimetric ELISA, periplasmic extract. An excerpt:
(§1) Llamas were immunized with purified FLT3 protein expressed in Expi293 cells. A phage display library for expression of heavy variable antibody domains was constructed from circulating B cells isolated from the immunized llamas (See van der Linden, de Geus, Stok, Bos, van Wassenaar, Verrips, and Frenken. 2000. J Immunol Methods 240:185-195). Phage clones were screened for binding to FLT3 by expressing llama anti-FLT3 proteins in E. coli, preparing periplasmic extracts, and performing colorimetric ELISAs.

For experiment [2], the target named is T1, human FLT3 protein. Nature of the experiment: colorimetric ELISA, signal over control wells lacking FLT3.
From the text: as §1

B1: FLL39 (VHH)
VHH: QVQLQESGGGLVQAGGSLRLSCAASGLTSSTYRMAWFRQAPGKEREFAAGISYSADSGGSTNYADSVKGRFTISRDNAKNTVYLQMSSLKPEDTAVYYCAAGRYSGTYNSPYSSSYVYWGQGTQVTVSS
notes: llama anti-FLT3 variable domain; E. coli periplasmic extract
Take B1: the “ELISA FLT3 (absorbance)” value with human FLT3 protein [1] is 1.9 absorbance. Also, the FLT3/control with human FLT3 protein [2] was determined as 12 ratio.

B2: FLL154 (VHH)
VHH: QVQLQESGGGLVQAGGSLRLSCAVSGRTFSGFGTGWFRQAPGKEREFVAAISWSGGRTHYADSVKGRFTISRDNAKNTVYLQMNSLKPEDTAVYYCAGQVARAYDGNWYSRGDYWGQGTQVTVSS
notes: as for B1
On to B2, for which, in the experiment with human FLT3 protein [1], the “ELISA FLT3 (absorbance)” value was 4 absorbance. Besides, the FLT3/control with human FLT3 protein [2] was 8 ratio.

B3: FLL38 (VHH)
VHH: QVQLQESGGGLVQAGGSLRLSCAVSGRTFSGFGTGWFRQAPGKEREFVAAVSWSGGTTEIADSVKGRFTISRDNAKNTVYLQMSSLKPGDTAVYYCAGQVARAYDSRWYSRGDYWGQGTQVTVSS
notes: as for B1
Regarding B3, the “ELISA FLT3 (absorbance)” value in the experiment with human FLT3 protein [1] worked out at 4 absorbance. The same molecule had an FLT3/control with human FLT3 protein [2] of 45 ratio.

B4: FLL83 (VHH)
VHH: QVQLQESGGGLVQAGGSLRLSCAVSGRTFSGFGTGWFRQAPGKEREFVAAISWSGGTTHYADSVKGRFTISRDNAENTVYLEMNSLKPEDTAVYICAGQVSRAYDSNWYSRDDYWGQGTQVTVSS
notes: as for B1
As for B4, the “ELISA FLT3 (absorbance)” value with human FLT3 protein [1] is 3.8 absorbance. In addition, the FLT3/control in the experiment with human FLT3 protein [2] is 35 ratio.

B5: FLL6 (VHH)
VHH: QVQLQESGGGLVQAGGSLRLSCAVSGRTFSGFGTGWFRQAPGKEREFVAAISWDGGRTHYADSVKGRFTISRDNAANTVYLQMNSLKPEDTAVYYCAGQVSRAYDSMWYGRDDYWGQGTQVTVSS
notes: as for B1
Consider B5, for which the “ELISA FLT3 (absorbance)” value with human FLT3 protein [1] was found to be 3.8 absorbance. The molecule further registered an FLT3/control with human FLT3 protein [2] of 16 ratio.

B6: FLL74 (VHH)
VHH: QVQLQESGGGLVQAGGSLRLSCRFSGRTFSGFGTGWFRQAPGKEREFVAAISWAGGRTHYEDSVKGRFTISRDNAKNTVYLQMNSLKPEDTAVYYCAVQVSRAYDGIWYSGGDYWGQGTQVTVSS
notes: as for B1
On to B6, for which, in the experiment with human FLT3 protein [1], the “ELISA FLT3 (absorbance)” value stood at 3.9 absorbance. This molecule showed an FLT3/control with human FLT3 protein [2] of 6 ratio.

B7: FLL177 (VHH)
VHH: QVQLQESGGGLVQTGGSLRLSCAASGSTFSRNTMGWFRQAPGKERVFVLGISWSGIRSYYLDSAKARFTISRDNAKNTVYLQMNSLRPEDTAVYYCAAQEGSSPGPYKYWGQGTQVTVSS
notes: as for B1
In the case of B7, in the experiment with human FLT3 protein [1], the “ELISA FLT3 (absorbance)” value is 4 absorbance. This molecule returned an FLT3/control in the experiment with human FLT3 protein [2] of 54 ratio.

B8: FLL822 (VHH)
VHH: QVQLQESGGGSVQAGGSLRLSCTASGRTFTDYTMGWFRQAPGKEREFMLGISSNGYRRYYTGSMKDRFTISRDNVKKTVYLQMNDLKPEDTAVYYCAASEDHGAPRYDYWGQGTQVTVSS
notes: as for B1
On to B8, for which the “ELISA FLT3 (absorbance)” value with human FLT3 protein [1] was 4 absorbance. Besides, the FLT3/control with human FLT3 protein [2] was 17 ratio.

B9: FLL45 (VHH)
VHH: QVQLQESGGGLVQAGGSLRLSCAASGGTFSSSAMGWFRQAPGKEREFVATITQNDVPTYYTHSVKGRFTISRDNAKNTMYLQMNSLKPEDTAVYYCAQRVAQASGWRTTIKDYGYWGQGTQVTVSS
notes: as for B1
Regarding B9, the “ELISA FLT3 (absorbance)” value with human FLT3 protein [1] came out at 4 absorbance. The FLT3/control with human FLT3 protein [2] was found to be 28 ratio.

B10: FLL15 (VHH)
VHH: QVQLQESGGGLVQAGGSLSLSCAASEGTISHAAMGWFRQAPGKERQFVAYDTWTGGSTNYADSVKDRFTITGDHAKNTVYLQMNSLKPEDTGVYYCAVRGRYSASYTYTNPASYKYWGQGTQVTVSS
notes: as for B1
Consider B10, for which, in the experiment with human FLT3 protein [1], the “ELISA FLT3 (absorbance)” value amounted to 2.5 absorbance. Moreover, the FLT3/control with human FLT3 protein [2] stood at 31 ratio.

B11: FLL823 (VHH)
VHH: QVQLQESGGGVVQVGGSLRLSCAASGGTFGYYAVGWFRQAPGKEREFVAAVTWNGAYLYSDPVKGRFTISRDNAKNTVYLQMNSLKSEDTAVYYCGLDRWSAVVESTPSTRGQGTQVTVSS
notes: as for B1
As for B11, in the experiment with human FLT3 protein [1], the “ELISA FLT3 (absorbance)” value came out at 3.6 absorbance. Moreover, the FLT3/control in the experiment with human FLT3 protein [2] was determined as 4 ratio.

B12: FLL76 (VHH)
VHH: QVQLQESGGGLVQAGGSLRLSCAASGGAFSSYVMGWFRQAPGKEREFVAAVISWSGRITDYADSVKGRFSISRDNAKSTVYLQMNNLKPEDTAVYYCAAKTGMYIDLRTSTFDYWGQGTQVTVSS
notes: as for B1
On to B12, for which, in the experiment with human FLT3 protein [1], the “ELISA FLT3 (absorbance)” value was found to be 0.5 absorbance. This molecule also showed an FLT3/control with human FLT3 protein [2] of 5 ratio.

B13: FLL125 (VHH)
VHH: QVQLQESGGGLVQAGGSLRLSCAASGSTFSRNYIDWYRQAPGKQREWVAQITSGGNTHYEPSLKGRFTISRDNAKNTAYLQMNSLKPEDTAVYYCRILDYWGQGTQVTVSS
notes: as for B1
Take B13: the “ELISA FLT3 (absorbance)” value in the experiment with human FLT3 protein [1] is 2.1 absorbance. The molecule also registered an FLT3/control with human FLT3 protein [2] of 17 ratio.

B14: FLL86 (VHH)
VHH: QVQLQESGGGLVQPGDPLRLSCAASGSTFSRNYIDWYRQAPGKQREWVAQITSGGNTHYEPSLKGRFTISRDNAKNTAYLQMNSLKPEDTAVYYCRILDYWGQGTQVTVSS
notes: as for B1
In the case of B14, the “ELISA FLT3 (absorbance)” value with human FLT3 protein [1] was 1.9 absorbance. Besides, the FLT3/control in the experiment with human FLT3 protein [2] worked out at 15 ratio.

B15: FLL79 (VHH)
VHH: QVQLQESGGGLVQAGGSLRLSCSASGSTFSRNYIDWYRQAPGKQREWVAQITSGGNTHYEPSLKGRFTISRDNAKNTAYLQMNSLKPEDTAVYYCRILDYWGQGTQVTVSS
notes: as for B1
For B15, the “ELISA FLT3 (absorbance)” value with human FLT3 protein [1] was 0.6 absorbance. Further, in the experiment with human FLT3 protein [2], the FLT3/control stood at 4 ratio.

B16: FLL62 (VHH)
VHH: QVQLQESGGGLVQAGGSLRLSCAASGSTSSRNYIDWYRQAPGKQREWVAQITSGGNTHYEPSLKGRFTISRDNAKNTAYLQMNSLKPEDTAVYYCRILDYWGQGTQVTVSS
notes: as for B1
Turning to B16, the “ELISA FLT3 (absorbance)” value with human FLT3 protein [1] came to 0.5 absorbance. The molecule also had an FLT3/control with human FLT3 protein [2] of 5 ratio.

B17: FLL158 (VHH)
VHH: QVQLQESGGGLVQPGGSLRLSCAASGSTFGRNYIDWYRQAPGKQREWVAQITSGGNTHYEPSLKGRFTISRDNAKNTAYLQMNSLKPEDTAVYYCRILDYWGQGTQVTVSS
notes: as for B1
For the molecule B17, the “ELISA FLT3 (absorbance)” value with human FLT3 protein [1] was determined as 2.1 absorbance. Also, the FLT3/control with human FLT3 protein [2] stood at 17 ratio.

B18: FLL21 (VHH)
VHH: QVQLQESGGGLVQPGGSLTLSCAASGSTFSRNYIDWYRQAPGKQREWVAQITSGGNTHYEPSLKGRFTISRDNAKNTAYLQMNSLKPEDTAVYYCRILDYWGQGTQVTVSS
notes: as for B1
In the case of B18, the “ELISA FLT3 (absorbance)” value in the experiment with human FLT3 protein [1] is 3.3 absorbance. Also, the FLT3/control with human FLT3 protein [2] worked out at 20 ratio.

B19: FLL57 (VHH)
VHH: QVQLQESGGGLVQAGGSLRLSCAASGSTFSKNYIDWYRQAPGKQREWVAQITSGGNTHYEPSLKGRFTISRDNAKNTAYLQMNSLKPEDTAVYYCRILDYWGQGTQVTVSS
notes: as for B1
For the molecule B19, the “ELISA FLT3 (absorbance)” value with human FLT3 protein [1] was determined as 1.4 absorbance. The FLT3/control with human FLT3 protein [2] was determined as 9 ratio.

B20: FLL55 (VHH)
VHH: QVQLQESGGGLVQAGGSLRLSCAASGSTFSRNYIDWYRQAPGKQREWVAQITSAGNTHYEPSLKGRFTISRDNAKNTAYLQMNSLKPEDTAVYYCRILDYWGQGTQVTVSS
notes: as for B1
As for B20, in the experiment with human FLT3 protein [1], the “ELISA FLT3 (absorbance)” value came to 2 absorbance. Further, the FLT3/control in the experiment with human FLT3 protein [2] stood at 6 ratio.
